From PMC4557121 (2015) come the findings set out here.

Usually Kd stands for the concentration at which binding is half-saturated.

B1: A2 [not stated] / purified TRB3 protein [not stated] (parent complex)
chain 1: GGWLTRLLQTK
chain 2: MRATPLAAPAGSLSRKKRLELDDNLDTERPVQKRARSGPQPRLPPCLLPLSPPTAPDRATAVATASRLGPYVLLEPEEGGRAYQALHCPTGTEYTCKVYPVQEALAVLEPYARLPPHKHVARPTEVLAGTQLLYAFFTRTHGDMHSLVRSRHRIPEPEAAVLFRQMATALAHCHQHGLVLRDLKLCRFVFADRERKKLVLENLEDSCVLTGPDDSLWDKHACPAYVGPEILSSRASYSGKAADVWSLGVALFTMLAGHYPFQDSEPVLLFGKIRRGAYALPAGLSAPARCLVRCLLRREPAERLTATGILLHPWLRQDPMPLAPTRSHLWEAAQVVPDGLGLDEAREEEGDREVVLYG

In this assay the parent is B1. Briefly: SPR; TRB3 immobilized on CM5 sensor chips. Background: Surface plasmon resonance follows binding to a sensor surface in real time, without labels.
chain 1 T10A: the dissociation constant (Kd) stood at 381 nM.
As to chain 1 T5A, the dissociation constant (Kd) turned out to be 110 nM.
For the variant chain 1 R6A, the equilibrium dissociation constant (Kd) was found to be 0.142 nM.
With chain 1 G1A the figure was 1640 nM.
Take chain 1 G2A: the Kd stood at 402 nM.
With chain 1 L4A, the equilibrium dissociation constant (Kd) is 4320 nM.
Consider chain 1 K11A, for which the Kd amounted to 73.1 nM.
As for chain 1 W3A, the Kd was determined as 3590 nM.
Consider chain 1 L7A, for which the Kd came out at 11800 nM.
For the variant chain 1 Q9A, the dissociation constant Kd stood at 35600 nM.
